Reference: publication PMC9352680, “A comprehensive thermodynamic model for RNA binding by the Saccharomyces cerevisiae Pumilio protein PUF4”

T1: PUF4 RNA-binding domain (Saccharomyces cerevisiae, UniProt P25339 537-888)
T1 sequence: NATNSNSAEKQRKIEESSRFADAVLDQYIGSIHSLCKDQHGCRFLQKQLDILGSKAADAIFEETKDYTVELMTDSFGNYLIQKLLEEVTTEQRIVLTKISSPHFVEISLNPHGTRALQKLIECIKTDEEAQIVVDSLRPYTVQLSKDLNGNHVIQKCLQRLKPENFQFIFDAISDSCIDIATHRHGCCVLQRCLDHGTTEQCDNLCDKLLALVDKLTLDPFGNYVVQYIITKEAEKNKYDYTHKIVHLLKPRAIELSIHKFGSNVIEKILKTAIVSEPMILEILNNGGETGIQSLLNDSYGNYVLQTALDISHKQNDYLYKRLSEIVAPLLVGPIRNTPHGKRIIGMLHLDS


molecular target: T1, PUF4 RNA-binding domain; assay: Mg; RNA-MaP; 20 mM Na-HEPES pH 7.4, 30 mM KOAc, 0.75 mM MgCl2, 0.1% Tween-20, 5% glycerol, 0.1 mg/mL BSA, 2 mM DTT; 25 C; 0.0125-409.6 nM protein; conditions: tags: N-His6-TEV cleaved; C-SNAP kept, Cy3B-labelled; label: tethered on chip by stalled RNA polymerase

Row | Binder | Kd
1 | Id_ii_S2_P4E.2_K4.1_C4.2_[C-2T]_[T-1C]_H4.1_A4.1_F4.1_T4.2_[G10C] (ssRNA) RNA: UUUGAUUAAUAUGAUAUCGUUCUUUCUUCUGUAUAUUACUUUCUUUCUCGAUAUCAUAUUAAUCUUU | 0.602 nM
2 | Id_ii_S2_P4E.2_K4.1_C4.2_[C-2T]_H4.1_A4.1_F4.1_T4.2_[G10T]_[T11C] (ssRNA) RNA: UUUGAUUAAUAUGAUAUCGUUCUUUCUUUUGUAUAUUAUCUUCUUUCUCGAUAUCAUAUUAAUCUUU | 0.364 nM
3 | Id_ii_S2_P4E.2_K4.1_C4.2_[C-2T]_[T-1C]_H4.1_A4.1_F4.1_T4.2 (ssRNA) RNA: UUUGAUUAAUAUGAUAUCGUUCUUUCUUCUGUAUAUUAGUUUCUUUCUCGAUAUCAUAUUAAUCUUU | 0.446 nM
4 | Id_ii_S2_P4E.2_K4.1_C4.2_[C-2T]_[T-1A]_H4.1_A4.1_F4.1_T4.2_[G10A]_[T11A] (ssRNA) RNA: UUUGAUUAAUAUGAUAUCGUUCUUUCUUAUGUAUAUUAAAUUCUUUCUCGAUAUCAUAUUAAUCUUU | 1.03 nM
5 | Id_ii_S2_P4E.2_K4.1_C4.2_[C-2T]_[T-1C]_H4.1_A4.1_F4.1_T4.2_[G10A]_[T11A] (ssRNA) RNA: UUUGAUUAAUAUGAUAUCGUUCUUUCUUCUGUAUAUUAAAUUCUUUCUCGAUAUCAUAUUAAUCUUU | 0.481 nM
6 | Id_ii_S2_P4E.2_K4.1_C4.2_[C-2T]_[T-1A]_H4.1_A4.1_F4.1_T4.2_[G10C]_[T11C] (ssRNA) RNA: UUUGAUUAAUAUGAUAUCGUUCUUUCUUAUGUAUAUUACCUUCUUUCUCGAUAUCAUAUUAAUCUUU | 0.822 nM
7 | Id_ii_S2_P4E.2_K4.1_C4.2_[C-2T]_[T-1A]_H4.1_A4.1_F4.1_T4.2_[G10A] (ssRNA) RNA: UUUGAUUAAUAUGAUAUCGUUCUUUCUUAUGUAUAUUAAUUUCUUUCUCGAUAUCAUAUUAAUCUUU | 0.878 nM
8 | Id_ii_S2_P4E.2_K4.1_C4.2_[C-2T]_[T-1A]_H4.1_A4.1_F4.1_T4.2_[T11C] (ssRNA) RNA: UUUGAUUAAUAUGAUAUCGUUCUUUCUUAUGUAUAUUAGCUUCUUUCUCGAUAUCAUAUUAAUCUUU | 0.523 nM
9 | Id_ii_S2_P4E.2_K4.1_C4.2_[C-2T]_H4.1_A4.1_F4.1_T4.2_[G10C]_[T11C] (ssRNA) RNA: UUUGAUUAAUAUGAUAUCGUUCUUUCUUUUGUAUAUUACCUUCUUUCUCGAUAUCAUAUUAAUCUUU | 0.557 nM
10 | Id_ii_S2_P4E.2_K4.1_C4.2_[C-2T]_[T-1A]_H4.1_A4.1_F4.1_T4.2_[G10T] (ssRNA) RNA: UUUGAUUAAUAUGAUAUCGUUCUUUCUUAUGUAUAUUAUUUUCUUUCUCGAUAUCAUAUUAAUCUUU | 0.502 nM
11 | Id_ii_S2_P4E.2_K4.1_C4.2_[C-2T]_H4.1_A4.1_F4.1_T4.2_[G10T]_[T11G] (ssRNA) RNA: UUUGAUUAAUAUGAUAUCGUUCUUUCUUUUGUAUAUUAUGUUCUUUCUCGAUAUCAUAUUAAUCUUU | 0.421 nM
12 | Id_ii_S2_P4E.2_K4.1_C4.2_[C-2T]_[T-1C]_H4.1_A4.1_F4.1_T4.2_[G10T]_[T11C] (ssRNA) RNA: UUUGAUUAAUAUGAUAUCGUUCUUUCUUCUGUAUAUUAUCUUCUUUCUCGAUAUCAUAUUAAUCUUU | 0.305 nM
13 | Id_ii_S2_P4E.2_K4.1_C4.2_[C-2T]_[T-1A]_H4.1_A4.1_F4.1_T4.2 (ssRNA) RNA: UUUGAUUAAUAUGAUAUCGUUCUUUCUUAUGUAUAUUAGUUUCUUUCUCGAUAUCAUAUUAAUCUUU | 0.715 nM
14 | Id_ii_S2_P4E.2_K4.1_C4.2_[C-2T]_[T-1A]_H4.1_A4.1_F4.1_T4.2_[G10T]_[T11C] (ssRNA) RNA: UUUGAUUAAUAUGAUAUCGUUCUUUCUUAUGUAUAUUAUCUUCUUUCUCGAUAUCAUAUUAAUCUUU | 0.618 nM
15 | Id_ii_S2_P4E.2_K4.1_C4.2_[C-2T]_H4.1_A4.1_F4.1_T4.2_[G10C] (ssRNA) RNA: UUUGAUUAAUAUGAUAUCGUUCUUUCUUUUGUAUAUUACUUUCUUUCUCGAUAUCAUAUUAAUCUUU | 0.762 nM
16 | Id_ii_S2_P4E.2_K4.1_C4.2_[C-2T]_[T-1C]_H4.1_A4.1_F4.1_T4.2_[G10A]_[T11C] (ssRNA) RNA: UUUGAUUAAUAUGAUAUCGUUCUUUCUUCUGUAUAUUAACUUCUUUCUCGAUAUCAUAUUAAUCUUU | 0.526 nM
17 | Id_ii_S2_P4E.2_K4.1_C4.2_[C-2T]_H4.1_A4.1_F4.1_T4.2_[G10T]_[T11A] (ssRNA) RNA: UUUGAUUAAUAUGAUAUCGUUCUUUCUUUUGUAUAUUAUAUUCUUUCUCGAUAUCAUAUUAAUCUUU | 0.564 nM
18 | UCUCUUAGUAUUAUUGUCUCUU (ssRNA) [Ib_S1_P5E.1_K5.1_C5.1_H5.1_[T1A]_A5.1_F5.1_[A10G]_T5.1] | > 2300 nM
19 | UCUCUUGGUAUUAUUGUCUCUU (ssRNA) [Ib_S1_P5E.1_K5.1_C5.1_H5.1_[T1G]_A5.1_F5.1_[A10G]_T5.1] | > 2300 nM
